Experimental data from the supplement of paper PMC10065799, “High-throughput profiling of sequence recognition by tyrosine kinases and SH2 domains using bacterial peptide display” (eLife, 2023).

Assays:
Grb2 SH2 = Grb2 SH2 (UniProt P62993); experiment: SH2 binding enrichment of the phosphorylated peptide, bacterial display (enrichment ratio); higher = better substrate or ligand; peptides without Tyr show the background
c-Src SH2 = experiment: as above
SHP2-C SH2 = experiment: as above
EPHB2 = EPHB2 (UniProt P29323); experiment: phosphorylation enrichment, bacterial display (enrichment ratio); higher = better substrate or ligand; peptides without Tyr show the background
EPHB1 = EPHB1 (UniProt P54762); experiment: as above
FGFR3 = FGFR3 (UniProt P22607); experiment: as above
FGFR3, sequence (P22607 whole entry, looked up): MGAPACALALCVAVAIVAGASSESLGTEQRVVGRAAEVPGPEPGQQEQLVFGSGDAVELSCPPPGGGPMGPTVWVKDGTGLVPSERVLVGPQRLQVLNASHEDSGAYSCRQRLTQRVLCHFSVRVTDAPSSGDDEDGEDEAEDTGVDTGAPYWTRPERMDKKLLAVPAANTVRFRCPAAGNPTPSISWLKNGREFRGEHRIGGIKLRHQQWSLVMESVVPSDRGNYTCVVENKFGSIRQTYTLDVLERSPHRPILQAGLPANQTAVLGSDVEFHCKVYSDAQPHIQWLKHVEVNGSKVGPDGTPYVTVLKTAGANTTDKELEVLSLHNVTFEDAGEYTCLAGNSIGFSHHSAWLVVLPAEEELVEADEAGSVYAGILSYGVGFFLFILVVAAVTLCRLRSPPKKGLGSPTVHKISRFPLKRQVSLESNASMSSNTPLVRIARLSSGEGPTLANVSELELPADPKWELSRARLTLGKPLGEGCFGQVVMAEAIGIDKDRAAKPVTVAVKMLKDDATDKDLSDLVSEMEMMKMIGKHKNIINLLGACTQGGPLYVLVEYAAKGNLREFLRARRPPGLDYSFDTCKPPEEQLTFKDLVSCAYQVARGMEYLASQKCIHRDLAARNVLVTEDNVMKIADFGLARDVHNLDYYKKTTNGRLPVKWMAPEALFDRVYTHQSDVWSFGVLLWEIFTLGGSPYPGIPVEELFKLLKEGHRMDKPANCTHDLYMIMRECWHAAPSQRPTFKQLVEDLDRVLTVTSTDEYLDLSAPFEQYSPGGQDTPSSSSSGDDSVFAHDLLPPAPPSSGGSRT

MERTK = MERTK (UniProt Q12866); experiment: as above
MERTK, sequence (Q12866 whole entry, looked up): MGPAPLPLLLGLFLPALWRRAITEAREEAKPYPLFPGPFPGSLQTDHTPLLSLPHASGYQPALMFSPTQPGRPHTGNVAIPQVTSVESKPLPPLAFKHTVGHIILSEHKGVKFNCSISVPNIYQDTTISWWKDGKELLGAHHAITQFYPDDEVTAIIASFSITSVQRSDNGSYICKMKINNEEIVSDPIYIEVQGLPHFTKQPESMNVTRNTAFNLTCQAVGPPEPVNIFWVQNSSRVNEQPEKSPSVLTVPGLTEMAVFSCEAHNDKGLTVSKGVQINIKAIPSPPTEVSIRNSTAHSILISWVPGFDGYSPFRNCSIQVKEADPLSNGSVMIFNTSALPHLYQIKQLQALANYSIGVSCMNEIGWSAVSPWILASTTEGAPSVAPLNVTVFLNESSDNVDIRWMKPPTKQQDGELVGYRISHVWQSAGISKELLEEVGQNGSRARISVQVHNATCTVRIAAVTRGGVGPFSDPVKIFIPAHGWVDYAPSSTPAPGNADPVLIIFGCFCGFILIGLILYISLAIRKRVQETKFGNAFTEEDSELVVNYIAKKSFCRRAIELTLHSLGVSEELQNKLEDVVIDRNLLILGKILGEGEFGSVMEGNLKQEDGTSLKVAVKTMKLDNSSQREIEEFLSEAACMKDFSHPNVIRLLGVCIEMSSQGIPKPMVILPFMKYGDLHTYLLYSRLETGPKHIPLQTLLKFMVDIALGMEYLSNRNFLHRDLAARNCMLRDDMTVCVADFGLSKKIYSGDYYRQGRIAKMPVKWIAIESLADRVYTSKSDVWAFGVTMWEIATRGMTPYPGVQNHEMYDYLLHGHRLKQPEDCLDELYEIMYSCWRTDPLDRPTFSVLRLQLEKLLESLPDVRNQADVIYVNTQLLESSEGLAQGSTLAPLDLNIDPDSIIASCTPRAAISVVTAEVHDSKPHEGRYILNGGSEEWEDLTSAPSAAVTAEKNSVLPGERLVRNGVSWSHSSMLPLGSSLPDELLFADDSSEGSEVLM

c-Src = experiment: as above
c-Abl (mouse) = experiment: as above
Hck = Hck (UniProt P08631); experiment: as above
Hck, sequence (P08631 whole entry, looked up): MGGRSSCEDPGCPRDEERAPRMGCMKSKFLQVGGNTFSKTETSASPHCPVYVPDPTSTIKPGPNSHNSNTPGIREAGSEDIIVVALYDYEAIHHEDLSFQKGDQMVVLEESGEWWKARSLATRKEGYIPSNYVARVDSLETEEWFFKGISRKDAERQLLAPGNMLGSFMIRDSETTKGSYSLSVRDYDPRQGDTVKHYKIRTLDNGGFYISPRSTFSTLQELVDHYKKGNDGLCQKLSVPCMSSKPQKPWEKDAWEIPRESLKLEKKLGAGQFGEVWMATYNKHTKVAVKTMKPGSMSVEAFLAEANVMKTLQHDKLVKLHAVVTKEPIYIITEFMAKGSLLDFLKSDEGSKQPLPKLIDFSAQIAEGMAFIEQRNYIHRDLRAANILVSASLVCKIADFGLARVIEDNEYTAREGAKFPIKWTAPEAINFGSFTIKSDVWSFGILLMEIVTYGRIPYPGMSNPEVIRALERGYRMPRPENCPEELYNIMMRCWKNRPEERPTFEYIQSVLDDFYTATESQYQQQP

Jak2 = Jak2 (UniProt O60674); experiment: as above
Fes = Fes (UniProt P07332); experiment: as above
Fes, sequence (P07332 whole entry, looked up): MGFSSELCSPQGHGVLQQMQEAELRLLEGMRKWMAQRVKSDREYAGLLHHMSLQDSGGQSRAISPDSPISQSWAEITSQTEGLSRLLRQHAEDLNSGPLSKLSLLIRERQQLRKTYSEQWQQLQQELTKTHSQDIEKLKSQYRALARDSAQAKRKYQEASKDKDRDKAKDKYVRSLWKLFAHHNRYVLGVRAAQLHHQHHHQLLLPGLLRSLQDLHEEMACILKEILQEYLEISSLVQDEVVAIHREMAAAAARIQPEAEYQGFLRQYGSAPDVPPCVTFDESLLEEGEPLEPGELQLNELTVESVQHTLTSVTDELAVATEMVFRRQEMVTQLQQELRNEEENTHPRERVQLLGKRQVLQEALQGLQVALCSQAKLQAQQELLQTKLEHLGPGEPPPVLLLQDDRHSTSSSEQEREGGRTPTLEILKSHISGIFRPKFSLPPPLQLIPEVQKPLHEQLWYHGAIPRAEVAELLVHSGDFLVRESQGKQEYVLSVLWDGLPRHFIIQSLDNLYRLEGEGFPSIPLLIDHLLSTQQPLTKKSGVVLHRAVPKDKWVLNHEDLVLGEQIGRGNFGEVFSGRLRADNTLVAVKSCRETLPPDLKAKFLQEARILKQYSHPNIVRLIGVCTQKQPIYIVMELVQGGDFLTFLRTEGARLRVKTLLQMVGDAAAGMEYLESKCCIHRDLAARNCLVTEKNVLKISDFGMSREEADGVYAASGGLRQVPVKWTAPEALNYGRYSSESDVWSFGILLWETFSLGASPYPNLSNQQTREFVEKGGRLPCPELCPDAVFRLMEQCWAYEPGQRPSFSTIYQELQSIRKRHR

Fyn = Fyn (UniProt P06241); experiment: as above
Fyn, sequence (P06241 whole entry, looked up): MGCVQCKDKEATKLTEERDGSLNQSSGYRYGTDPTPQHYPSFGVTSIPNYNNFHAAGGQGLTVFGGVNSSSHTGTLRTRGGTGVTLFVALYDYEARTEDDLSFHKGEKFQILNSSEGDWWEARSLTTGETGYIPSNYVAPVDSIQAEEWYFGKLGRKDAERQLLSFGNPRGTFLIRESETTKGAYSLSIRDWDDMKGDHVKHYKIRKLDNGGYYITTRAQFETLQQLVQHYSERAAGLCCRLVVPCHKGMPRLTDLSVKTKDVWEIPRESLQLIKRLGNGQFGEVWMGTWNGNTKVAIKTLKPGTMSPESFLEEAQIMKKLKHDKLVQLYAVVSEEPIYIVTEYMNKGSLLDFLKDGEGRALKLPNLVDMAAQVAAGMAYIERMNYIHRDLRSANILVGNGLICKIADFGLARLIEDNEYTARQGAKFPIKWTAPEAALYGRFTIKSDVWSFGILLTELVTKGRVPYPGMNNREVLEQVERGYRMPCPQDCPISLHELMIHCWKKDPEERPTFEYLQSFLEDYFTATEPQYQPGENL

Fer (mouse) = experiment: as above
AncSZ = experiment: as above
FGFR1 = FGFR1 (UniProt P11362); experiment: as above
FGFR1, sequence (P11362 whole entry, looked up, the tested form may be a part): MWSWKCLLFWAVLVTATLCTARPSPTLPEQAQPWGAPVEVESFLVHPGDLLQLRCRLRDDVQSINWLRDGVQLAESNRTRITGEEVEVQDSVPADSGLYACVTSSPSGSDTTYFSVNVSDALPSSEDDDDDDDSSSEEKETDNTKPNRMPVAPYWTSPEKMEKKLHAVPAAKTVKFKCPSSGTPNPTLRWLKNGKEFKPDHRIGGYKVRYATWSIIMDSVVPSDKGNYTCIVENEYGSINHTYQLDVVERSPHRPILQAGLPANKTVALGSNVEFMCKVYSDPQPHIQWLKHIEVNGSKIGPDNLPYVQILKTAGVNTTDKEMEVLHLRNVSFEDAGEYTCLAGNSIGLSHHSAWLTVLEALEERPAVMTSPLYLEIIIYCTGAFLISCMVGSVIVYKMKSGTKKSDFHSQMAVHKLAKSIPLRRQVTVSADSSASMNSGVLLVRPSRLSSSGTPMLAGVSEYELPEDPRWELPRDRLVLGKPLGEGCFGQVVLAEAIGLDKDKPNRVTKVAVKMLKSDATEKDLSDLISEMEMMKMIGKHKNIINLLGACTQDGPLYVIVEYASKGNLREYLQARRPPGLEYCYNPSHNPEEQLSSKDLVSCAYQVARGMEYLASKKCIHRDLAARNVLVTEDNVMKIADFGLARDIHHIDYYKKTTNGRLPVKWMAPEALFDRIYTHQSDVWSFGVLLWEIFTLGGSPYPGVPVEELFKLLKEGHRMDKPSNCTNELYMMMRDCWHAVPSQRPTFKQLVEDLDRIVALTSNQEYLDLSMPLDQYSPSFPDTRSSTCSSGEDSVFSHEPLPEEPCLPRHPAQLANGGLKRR
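Wherever SH2 binding enrichment of the phosphorylated peptide, bacterial display is given: peptide library displayed on the E. coli surface as eCPX fusions, selected cells deep-sequenced, score is each peptide's frequency after selection divided by its frequency in the input.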
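Wherever phosphorylation enrichment, bacterial display is given: 11-residue human phosphosite peptides and single-mutation variants displayed on the E. coli surface, counted by deep sequencing, each peptide's frequency after selection divided by its frequency in the unselected input library; frequency after pTyr selection over input frequency; kinase dosed for 20-30% of maximal phosphorylation in three min.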

Grb2 SH2, sequence (P62993 whole entry, looked up): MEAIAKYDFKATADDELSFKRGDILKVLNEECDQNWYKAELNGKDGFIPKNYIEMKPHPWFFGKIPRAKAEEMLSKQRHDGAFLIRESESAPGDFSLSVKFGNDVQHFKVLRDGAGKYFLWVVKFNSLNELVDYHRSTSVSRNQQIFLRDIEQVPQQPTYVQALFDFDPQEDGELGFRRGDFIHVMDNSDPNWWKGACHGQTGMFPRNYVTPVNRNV

| Sequence | SH2 binding enrichment (Grb2 SH2) | SH2 binding enrichment (c-Src SH2) | SH2 binding enrichment (SHP2-C SH2) | phosphorylation enrichment (EPHB2) | phosphorylation enrichment (EPHB1) | phosphorylation enrichment (FGFR3) | phosphorylation enrichment (MERTK) | phosphorylation enrichment (c-Src) | phosphorylation enrichment (c-Abl (mouse)) | phosphorylation enrichment (Hck) | phosphorylation enrichment (Jak2) | phosphorylation enrichment (Fes) | phosphorylation enrichment (Fyn) | phosphorylation enrichment (Fer (mouse)) | phosphorylation enrichment (AncSZ) | phosphorylation enrichment (FGFR1) |
| --- | --- | --- | --- | --- | --- | --- | --- | --- | --- | --- | --- | --- | --- | --- | --- | --- |
| EKAEVYGSENE [RIOK2_Y348] | 0.825 | 0.618 | 0.567 | 0.52 | 0.464 | 0.625 | 0.445 | 0.483 | 0.609 | 0.464 | 0.911 | 1 | 0.566 | 0.457 | 1.11 | 0.455 |
| EKESCYILHSS [PATJ_Y783_E779K] | 0.959 | 0.719 | 0.694 | 0.519 | 0.531 | 0.77 | 0.533 | 0.595 | 0.707 | 0.497 | 0.936 | 1.09 | 0.549 | 0.623 | 1.28 | 0.572 |
| EKGEEYGGGGG [TUBA1A_Y451_E447K] | 0.911 | 0.51 | 0.729 | 0.574 | 0.585 | 0.67 | 0.296 | 0.293 | 0.384 | 0.63 | 0.578 | 0.855 | 0.448 | 0.499 | 0.847 | 0.578 |
| EKLQKYYRKNP [EHHADH_Y682_Q685K] | 0.95 | 0.603 | 1.11 | 0.484 | 0.471 | 0.598 | 0.394 | 0.482 | 0.699 | 0.353 | 0.694 | 0.753 | 0.388 | 0.417 | 0.575 | 0.45 |
| EKPAKYDDIKK [GAPDH_Y255] | 0.657 | 1.34 | 0.662 | 0.452 | 0.441 | 0.503 | 0.334 | 0.352 | 0.632 | 0.426 | 0.745 | 1.01 | 0.316 | 0.392 | 0.782 | 0.391 |
| EKRDAYVSRLN [GSR_Y150] | 0.772 | 0.43 | 0.608 | 0.434 | 0.455 | 0.441 | 0.397 | 0.377 | 0.423 | 0.429 | 0.48 | 0.575 | 0.351 | 0.328 | 0.547 | 0.418 |
| ELTAKYLNYYR [P3H4_Y181_Q186R] | 2.44 | 0.666 | 0.948 | 0.512 | 0.606 | 0.541 | 0.496 | 0.374 | 0.498 | 0.419 | 0.616 | 0.748 | 0.369 | 0.392 | 0.639 | 0.498 |
| ENEGTYVCIAA [ADAMTSL3_Y1365_T1370A] | 0.471 | 0.425 | 0.402 | 1.09 | 1.55 | 1.62 | 0.69 | 1.75 | 1.08 | 1.21 | 1.05 | 1.36 | 1.39 | 1.05 | 1.34 | 1.53 |
